Assay results reported in patent publication US20240067722A1.
One block for each binder: values may come before it.

Assays:
[1] = target: Recombinant human LAG-3 protein (Fc Chimera), R&D 2319-L3 (human) (UniProt P18627); test: flow cytometry competition, huLAG-3-Fc on HLA-DR expressing cells, VHH at 500 nM
[2] = target: human LAG-3 expressed on cells (human) (UniProt P18627)

- percent block of the LAG-3/HLA-DR interaction [1]: 75%
B1: huLAG-3 specific VHH 3185 (VHH)
VHH: QVQLQESGGGLVQPGGSLKLSCAASGFTWDYSAIGWFRQAPGKEREGVSCITSSGKDTQYLDSVKGRFTISRDNTKNTVYLQMNNLKPEDTAVYYCAAPGRVRGSCNGRWDYWGQGTQVTVSS

- percent block of the LAG-3/HLA-DR interaction [1]: 75%
- GFP expression by 2D3 cells (measure of TCR signaling) [2]: 2 fold
B2: huLAG-3 specific VHH 3150 (VHH)
VHH: QVQLQESGGGLVQAGGSLRLSCAASGITFDDYAIGWFRQAPGKEREGVSCIRSSDDSTYYADSVKGRFTISSDNAKNTVYLQMNSLKPEDTAVYYCARDVYSDCKGPYDSWGRGTQVTVSS
